Reference: paper PMC12668182
Values belong to the substance of their own block, whether it stands above or below them.

Experiments:
[1] = target: HaloTag-CSB, full length, JaneliaFluor-labelled (human) (UniProt Q03468); assay: single-molecule fluorescence on tethered DNA (SMADNE, LUMICKS C-Trap); oligomerisation state of HaloTag-CSB (photon counts) in events colocalised with SNM1A on lambda dsDNA; DNA present
[2] = target: HaloTag-CSB, full length, JaneliaFluor-labelled (human) (UniProt Q03468); assay: single-molecule fluorescence on tethered DNA (SMADNE, LUMICKS C-Trap); two-colour HaloTag-CSB nuclear extracts (JF552 and JF635) on lambda dsDNA; colocalisation and photon counts; 20 mM HEPES pH 7.5, 10% glycerol, 1 mM DTT, 1 mM MgCl2; 30 C; DNA present
[3] = target: HaloTag-CSB, full length, JaneliaFluor-labelled (human) (UniProt Q03468); assay: single-molecule fluorescence on tethered DNA (SMADNE, LUMICKS C-Trap); oligomerisation state of HaloTag-CSB (photon counts) at the site-specific ICL repair intermediate, alone or colocalised with SNM1A; DNA present
[4] = system: HaloTag-CSB full-length (nuclear extract, SMADNE);HaloTag-SNM1A catalytic domain; assay: single-molecule (optical tweezers C-Trap); details: EMSA: 20 mM HEPES-KOH pH 7.5, 50 mM KCl, 0.05% Triton X-100, 0.5 mM TCEP, 5% glycerol, 1 nM oligo, 4 C, C-Trap: 20 mM HEPES pH 7.5, 10% glycerol, 1 mM DTT
[5] = system: HaloTag-SNM1A catalytic domain; assay: single-molecule (optical tweezers C-Trap); details: EMSA: 20 mM HEPES-KOH pH 7.5, 50 mM KCl, 0.05% Triton X-100, 0.5 mM TCEP, 5% glycerol, 1 nM oligo, 4 C, C-Trap: 20 mM HEPES pH 7.5, 10% glycerol, 1 mM DTT
[6] = target: full-length CSB (ERCC6), wild type, recombinant (human) (UniProt Q03468); assay: SEC; purification of full-length CSB alone on Superdex S200; retention volume compared with calibration curves; 50 mM HEPES pH 8, 300 mM NaCl, 1 mM TCEP; monomer to dimer
[7] = system: HaloTag-CSB full-length (nuclear extract, SMADNE); assay: single-molecule (SMADNE, optical tweezers C-Trap); details: EMSA: 20 mM HEPES-KOH pH 7.5, 50 mM KCl, 0.05% Triton X-100, 0.5 mM TCEP, 5% glycerol, 1 nM oligo, 4 C, C-Trap: 20 mM HEPES pH 7.5, 10% glycerol, 1 mM DTT
[8] = triazole click ICL (azide-C6-amino-dA x octadiynyl-dU), 5'P flap

percent of CSB:SNM1A colocalisation events on lambda DNA in which CSB was a dimer [1]: 73%
percent of CSB binding events on lambda DNA that were dimeric [2]: 35%
percent of single colour tracks in which a dimeric CSB bound to DNA [2]: 20%
percent of CSB events at the ICL repair intermediate that were dimeric [3]: 78%
percent of SNM1A:CSB events on ICL repair intermediates with dimeric CSB [3]: 90%
Substance: HaloTag-CSB, full length, JaneliaFluor-labelled (from UniProt Q03468 1-1493) (natural protein)

Substance: ICL flap repair intermediate (C-Trap)
Kd [4, 8]: 45 nM
Kd [5, 8]: 355 nM

stoichiometry N [6]: 2
Substance: full-length CSB (ERCC6), wild type, recombinant (from UniProt Q03468 1-1493) (natural protein)

Substance: lambda DNA (undamaged)
Kd [7]: 1.2 nM
Kd [4]: 17.5 nM
Kd [5]: 21.8 nM
